Experimental findings from US6306622, “cDNA encoding a BMP type II receptor” (The Procter & Gamble Co., dated 2001) are described below.

Several values for one entry are separate records, joined by “and”; a condition that tells them apart may be missing. Equal values may be shown once.

The target in test [1] is T1, mouse BMP receptor kinase protein (m-BRK-3) (mouse).
T1 chain: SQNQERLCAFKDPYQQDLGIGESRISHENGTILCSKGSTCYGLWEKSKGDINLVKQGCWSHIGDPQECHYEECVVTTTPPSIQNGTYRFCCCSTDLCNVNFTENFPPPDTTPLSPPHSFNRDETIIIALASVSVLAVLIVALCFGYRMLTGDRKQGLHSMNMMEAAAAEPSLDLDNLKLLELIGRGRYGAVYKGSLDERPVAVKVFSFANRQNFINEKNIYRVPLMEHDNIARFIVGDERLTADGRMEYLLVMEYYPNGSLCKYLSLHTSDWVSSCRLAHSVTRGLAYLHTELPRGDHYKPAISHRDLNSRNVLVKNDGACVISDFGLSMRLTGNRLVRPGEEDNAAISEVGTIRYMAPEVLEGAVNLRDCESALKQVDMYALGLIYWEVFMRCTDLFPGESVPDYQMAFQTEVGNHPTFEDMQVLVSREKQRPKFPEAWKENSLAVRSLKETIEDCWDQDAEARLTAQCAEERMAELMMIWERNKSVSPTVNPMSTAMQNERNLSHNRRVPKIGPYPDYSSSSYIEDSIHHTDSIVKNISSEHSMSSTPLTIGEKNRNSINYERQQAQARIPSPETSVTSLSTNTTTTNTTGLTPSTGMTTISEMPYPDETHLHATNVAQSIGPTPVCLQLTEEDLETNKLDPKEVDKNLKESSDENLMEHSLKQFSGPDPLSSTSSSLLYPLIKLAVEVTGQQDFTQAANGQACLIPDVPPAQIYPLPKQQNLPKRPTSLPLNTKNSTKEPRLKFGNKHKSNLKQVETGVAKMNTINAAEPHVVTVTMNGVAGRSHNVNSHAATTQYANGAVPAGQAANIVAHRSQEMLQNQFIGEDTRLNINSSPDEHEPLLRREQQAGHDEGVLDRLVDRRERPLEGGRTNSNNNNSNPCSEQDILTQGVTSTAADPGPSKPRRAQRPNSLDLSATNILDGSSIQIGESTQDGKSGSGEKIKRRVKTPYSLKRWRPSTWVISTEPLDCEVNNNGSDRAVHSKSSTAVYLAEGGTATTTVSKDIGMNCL
Nature of the test: whole cell binding of [125I]-BMP-4 to COS-1 cells transfected with pJT6-mBRK-3S or pJT6-mBRK-3L. Conditions: remark: other sources report otherwise; scale: times the level of mock transfected cells.

A further test addresses T2, [^125 I]-BMP-4 (Homo sapiens (Human), UniProt P12644, 125I label (iodinated with IODOBEADS or by the chloramine-T method)).
T2 sequence: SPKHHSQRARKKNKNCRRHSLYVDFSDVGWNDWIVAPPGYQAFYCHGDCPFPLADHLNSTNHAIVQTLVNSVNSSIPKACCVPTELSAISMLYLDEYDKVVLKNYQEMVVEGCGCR
Nature of the test: covalent crosslinking (DSS) to co-transfected COS-1 cells, SDS gel. An excerpt: COS-1 cells are transfected with the cDNA for m-BRK-3 using the construct pJT6-mBRK-3S, and/or with cDNAs for BRK-1 (using pJT4-J159F) or BRK-2 (using pJT3-BRK-2). The cells are then allowed to bind [^125I]-BMP-4, crosslinked with disuccinimidyl suberate, immunoprecipitated with antibodies to BRK-1 or BRK-2, and subjected to SDS gel electrophoresis. Antisera used are indicated below the lanes: PI, preimmune; 1379, for cells transfected with cDNA for BRK-1; 1380, for cells transfected with cDNA for BRK-2. Position of molecular weight standards is indicated on the left. Left to right, COS-1 cells transfected with BRK-1 plus m-BRK-3 (preimmune serum); BRK-1 alone; BRK-1 plus m-BRK-3; BRK-2 plus m-BRK-3; BRK-2 alone; and BRK-2 plus m-BRK-3 (preimmune serum).
COS-1 cells are transfected with the cDNA for m-BRK-3, using the construct pJT6-mBRK-3 S, and/or with cDNAs for BRK-1 (using pJT4-J159F) or BRK-2 (using pJT3-BRK-2) as described in Example 5. The transfected cells are incubated with [^125I]-BMP-4, crosslinked, and subjected to immunoprecipitation with antibodies to the appropriate type I receptor or preimmune serum as described in example 8, except that DSS is used as the crosslinking agent rather than disuccinimidyl glutarate. In cells transfected with cDNA for BRK-1 alone, a single band is precipitated by antibodies to BRK-1, migrating at an apparent molecular weight of 81 kD. […]

B1: [^125 I]-BMP-4, P12644 (ligand)
chain: SPKHHSQRARKKNKNCRRHSLYVDFSDVGWNDWIVAPPGYQAFYCHGDCPFPLADHLNSTNHAIVQTLVNSVNSSIPKACCVPTELSAISMLYLDEYDKVVLKNYQEMVVEGCGCR
modifications: here or on the partner: 125I label (iodinated with IODOBEADS or by the chloramine-T method)
As for B1, the specific binding, times the level seen with mock transfected cells in test [1] was 4 and 4 to 7.

B2: m-BRK-3/BRK-1 complex (receptor)
chain 1: SQNQERLCAFKDPYQQDLGIGESRISHENGTILCSKGSTCYGLWEKSKGDINLVKQGCWSHIGDPQECHYEECVVTTTPPSIQNGTYRFCCCSTDLCNVNFTENFPPPDTTPLSPPHSFNRDETIIIALASVSVLAVLIVALCFGYRMLTGDRKQGLHSMNMMEAAAAEPSLDLDNLKLLELIGRGRYGAVYKGSLDERPVAVKVFSFANRQNFINEKNIYRVPLMEHDNIARFIVGDERLTADGRMEYLLVMEYYPNGSLCKYLSLHTSDWVSSCRLAHSVTRGLAYLHTELPRGDHYKPAISHRDLNSRNVLVKNDGACVISDFGLSMRLTGNRLVRPGEEDNAAISEVGTIRYMAPEVLEGAVNLRDCESALKQVDMYALGLIYWEVFMRCTDLFPGESVPDYQMAFQTEVGNHPTFEDMQVLVSREKQRPKFPEAWKENSLAVRSLKETIEDCWDQDAEARLTAQCAEERMAELMMIWERNKSVSPTVNPMSTAMQNERNLSHNRRVPKIGPYPDYSSSSYIEDSIHHTDSIVKNISSEHSMSSTPLTIGEKNRNSINYERQQAQARIPSPETSVTSLSTNTTTTNTTGLTPSTGMTTISEMPYPDETHLHATNVAQSIGPTPVCLQLTEEDLETNKLDPKEVDKNLKESSDENLMEHSLKQFSGPDPLSSTSSSLLYPLIKLAVEVTGQQDFTQAANGQACLIPDVPPAQIYPLPKQQNLPKRPTSLPLNTKNSTKEPRLKFGNKHKSNLKQVETGVAKMNTINAAEPHVVTVTMNGVAGRSHNVNSHAATTQYANGAVPAGQAANIVAHRSQEMLQNQFIGEDTRLNINSSPDEHEPLLRREQQAGHDEGVLDRLVDRRERPLEGGRTNSNNNNSNPCSEQDILTQGVTSTAADPGPSKPRRAQRPNSLDLSATNILDGSSIQIGESTQDGKSGSGEKIKRRVKTPYSLKRWRPSTWVISTEPLDCEVNNNGSDRAVHSKSSTAVYLAEGGTATTTVSKDIGMNCL
chain 2: QNLDSMLHGTGMKSDLDQKKPENGVTLAPEDTLPFLKCYCSGHCPDDAINNTCITNGHCFAIIEEDDQGETTLTSGCMKYEGSDFQCKDSPKAQLRRTIECCRTNLCNQYLQPTLPPVVIGPFFDGSIRWLVVLISMAVCIVAMIIFSSCFCYKHYCKSISSRGRYNRDLEQDEAFIPVGESLKDLIDQSQSSGSGSGLPLLVQRTIAKQIQMVRQVGKGRYGEVWMGKWRGEKVAVKVFFTTEEASWFRETEIYQTVLMRHENILGFIAADIKGTGSWTQLYLITDYHENGSLYDFLKCATLDTRALLKLAYSAACGLCHLHTEIYGTQGKPAIAHRDLKSKNILIKKNGSCCIADLGLAVKFNSDTNEVDIPLNTRVGTKRYMAPEVLDESLNKNHFQPYIMADIYSFGLIIWEMARRCITGGIVEEYQLPYYNMVPSDPSYEDMREVVCVKRLRPIVSNRWNSDECLRAVLKLMSECWAHNPASRLTALRIKKTLAKMVESQDVKI
For B2, the binding result in test [^125 I]-BMP-4 is recorded as “binds”.

B3: m-BRK-3/BRK-2 complex (receptor)
chain 1: SQNQERLCAFKDPYQQDLGIGESRISHENGTILCSKGSTCYGLWEKSKGDINLVKQGCWSHIGDPQECHYEECVVTTTPPSIQNGTYRFCCCSTDLCNVNFTENFPPPDTTPLSPPHSFNRDETIIIALASVSVLAVLIVALCFGYRMLTGDRKQGLHSMNMMEAAAAEPSLDLDNLKLLELIGRGRYGAVYKGSLDERPVAVKVFSFANRQNFINEKNIYRVPLMEHDNIARFIVGDERLTADGRMEYLLVMEYYPNGSLCKYLSLHTSDWVSSCRLAHSVTRGLAYLHTELPRGDHYKPAISHRDLNSRNVLVKNDGACVISDFGLSMRLTGNRLVRPGEEDNAAISEVGTIRYMAPEVLEGAVNLRDCESALKQVDMYALGLIYWEVFMRCTDLFPGESVPDYQMAFQTEVGNHPTFEDMQVLVSREKQRPKFPEAWKENSLAVRSLKETIEDCWDQDAEARLTAQCAEERMAELMMIWERNKSVSPTVNPMSTAMQNERNLSHNRRVPKIGPYPDYSSSSYIEDSIHHTDSIVKNISSEHSMSSTPLTIGEKNRNSINYERQQAQARIPSPETSVTSLSTNTTTTNTTGLTPSTGMTTISEMPYPDETHLHATNVAQSIGPTPVCLQLTEEDLETNKLDPKEVDKNLKESSDENLMEHSLKQFSGPDPLSSTSSSLLYPLIKLAVEVTGQQDFTQAANGQACLIPDVPPAQIYPLPKQQNLPKRPTSLPLNTKNSTKEPRLKFGNKHKSNLKQVETGVAKMNTINAAEPHVVTVTMNGVAGRSHNVNSHAATTQYANGAVPAGQAANIVAHRSQEMLQNQFIGEDTRLNINSSPDEHEPLLRREQQAGHDEGVLDRLVDRRERPLEGGRTNSNNNNSNPCSEQDILTQGVTSTAADPGPSKPRRAQRPNSLDLSATNILDGSSIQIGESTQDGKSGSGEKIKRRVKTPYSLKRWRPSTWVISTEPLDCEVNNNGSDRAVHSKSSTAVYLAEGGTATTTVSKDIGMNCL
chain 2: RKEDSEGTAPAPPQKKLSCQCHHHCPEDSVNSTCSTDGYCFTIIEEDDSGGHLVTKGCLGLEGSDFQCRDTPIPHQRRSIECCTGQDYCNKHLHPTLPPLKNRDFAEGNIHHKALLISVTVCSILLVLIIIFCYFRYKRQEARPRYSIGLEQDETYIPPGESLKDLIEQSQSSGSGSGLPLLVQRTIAKQIQMVKQIGKGRYGEVWMGKWRGEKVAVKVFFTTEEASWFRETEIYQTVLMRHENILGFIAADIKGTGSWTQLYLITDYHENGSLYDYLKSTTLDTKGMLKLAYSSVSGLCHLHTGIFSTQGKPAIAHRDLKSKNILVKKNGTCCIADLGLAVKFISDTNEVDIPPNTRVGTKRYMPPEVLDESLNRNHFQSYIMADMYSFGLILWEIARRCVSGGIVEEYQLPYHDLVPSDPSYEDMREIVCIKRLRPSFPNRWSSDECLRQMGKLMMECWAHNPASRLTALRVKKTLAKMSESQDIKL
Turning to B3, the binding result in test [^125 I]-BMP-4 was “binds”.
